From patent publication US20230151109A1 (UCB, published 2023) come the findings set out here.

In assay [1] the target is T1, full-length CD9 expressed on cells (human, UniProt P21926 2-228).
T1 construct: also called human CD9
T1 sequence: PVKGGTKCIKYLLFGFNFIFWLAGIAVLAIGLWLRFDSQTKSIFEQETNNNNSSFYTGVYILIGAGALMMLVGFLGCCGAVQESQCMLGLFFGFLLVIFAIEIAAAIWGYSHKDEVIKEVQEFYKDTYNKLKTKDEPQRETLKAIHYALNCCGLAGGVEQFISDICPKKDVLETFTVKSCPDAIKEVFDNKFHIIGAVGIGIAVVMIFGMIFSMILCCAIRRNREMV
In words: selection by binding to cells expressing full-length CD9; method not described.

The target in assay [2] is T2, recombinant human CD9 long extracellular loop 2-human Fc fusion protein (10015-CD, R&D Systems) (human, UniProt P21926 112-195).
T2 construct: Bought protein; The parts are ordered as in the printed name; also called CD9-loop2; long extracellular loop 2 peptide; not shown: human Fc of the bought fusion protein
T2 sequence: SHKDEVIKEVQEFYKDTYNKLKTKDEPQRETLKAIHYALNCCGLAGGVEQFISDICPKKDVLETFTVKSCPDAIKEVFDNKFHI
In words: biolayer interferometry (Octet RED384), CD9 loop 2-Fc on AHC biosensors, Fab-Y 10 ug/mL. How it is done: Seven different CD9 antibodies each providing unique functional activity with CD137, CD7 and HVEM antibodies in a bispecific combination were analysed for their ability to bind the long extracellular loop 2 of CD9. CD9 contains two extracellular loops: a short extracellular loop (loop 1: 34-55 in SEQ ID NO:1) and a long extracellular loop (loop 2: 112-195 in SEQ ID NO:1). We used biolayer interferometry to assess binding of our panel of CD9 Fab-Y antibodies (selected for ability to bind full-length CD9 expressed on cells) to the long extracellular loop 2 peptide, using the Octet® RED384 System (FortéBio) with anti-hIgG Fc Capture (AHC) Biosensors (FortéBio) at room temperature. Firstly, an array of 8 sensors was dipped in kinetics buffer (PBS 0.1%, BSA 0.02%, Tween 20) for 120 seconds to provide a baseline signal. Sensors were then moved to wells containing 200 μl of recombinant human CD9 long extracellular loop 2-human Fc fusion protein (10015-CD, R&D Systems®) at 2 μg/mL in kinetics buffer to immobilize the protein to the biosensor (100 seconds), followed by a second baseline step (180 seconds) in kinetics buffer to equilibrate the biosensors now coated with the CD9 long extracellular loop 2-human Fc fusion protein. No detachment of the peptide was observed during this step. […]

B1: anti-CD9 Fab-Y antibody 7272 (Fab, V domains shown)
VH: QSLEESGGRLVTPGTPLTLTCTVSGFSLSSYAMGWVRQAPGKGLEWIGAIGSITATGYARWAKGRFSISKTSTTVDLKMTSPTTEDTATYFCAREIYVGSAYAFDIWGPGTLVTVSS
VL: AYDMTQTPASVEVAVGDTVTIKCQASQSISNYLAWYQQKPGQPPKLLIYLASTLASGVPSRFKGSGSGTEFTLTISDLECADAATYYCQQGYIDNVNKGFGGGTEVVVK
notes: Tested as Fab-Y: Fab fragment joined through a peptide linker at CH1 to the GCN4 peptide (clone 7P14P); also called VR7272
Turning to B1, the binding result in assay [1] and in assay [2] was “binds” throughout.
